Measurements taken from PMC9995077 (Science Advances, 2023).

Assays:
Ino80-K929R-FLAG = Ino80-K929R-FLAG (S. cerevisiae, UniProt P53115 1-1489, K929R); assay: co-IP
[1] = biological target: Ino80-FLAG (endogenously expressed FLAG-tagged Ino80) (S. cerevisiae (endogenous in yeast …, UniProt P53115 1-1489)); assay: co-IP
Chain of Ino80-FLAG (endogenously expressed FLAG-tagged Ino80) (S. cerevisiae (P53115 whole entry): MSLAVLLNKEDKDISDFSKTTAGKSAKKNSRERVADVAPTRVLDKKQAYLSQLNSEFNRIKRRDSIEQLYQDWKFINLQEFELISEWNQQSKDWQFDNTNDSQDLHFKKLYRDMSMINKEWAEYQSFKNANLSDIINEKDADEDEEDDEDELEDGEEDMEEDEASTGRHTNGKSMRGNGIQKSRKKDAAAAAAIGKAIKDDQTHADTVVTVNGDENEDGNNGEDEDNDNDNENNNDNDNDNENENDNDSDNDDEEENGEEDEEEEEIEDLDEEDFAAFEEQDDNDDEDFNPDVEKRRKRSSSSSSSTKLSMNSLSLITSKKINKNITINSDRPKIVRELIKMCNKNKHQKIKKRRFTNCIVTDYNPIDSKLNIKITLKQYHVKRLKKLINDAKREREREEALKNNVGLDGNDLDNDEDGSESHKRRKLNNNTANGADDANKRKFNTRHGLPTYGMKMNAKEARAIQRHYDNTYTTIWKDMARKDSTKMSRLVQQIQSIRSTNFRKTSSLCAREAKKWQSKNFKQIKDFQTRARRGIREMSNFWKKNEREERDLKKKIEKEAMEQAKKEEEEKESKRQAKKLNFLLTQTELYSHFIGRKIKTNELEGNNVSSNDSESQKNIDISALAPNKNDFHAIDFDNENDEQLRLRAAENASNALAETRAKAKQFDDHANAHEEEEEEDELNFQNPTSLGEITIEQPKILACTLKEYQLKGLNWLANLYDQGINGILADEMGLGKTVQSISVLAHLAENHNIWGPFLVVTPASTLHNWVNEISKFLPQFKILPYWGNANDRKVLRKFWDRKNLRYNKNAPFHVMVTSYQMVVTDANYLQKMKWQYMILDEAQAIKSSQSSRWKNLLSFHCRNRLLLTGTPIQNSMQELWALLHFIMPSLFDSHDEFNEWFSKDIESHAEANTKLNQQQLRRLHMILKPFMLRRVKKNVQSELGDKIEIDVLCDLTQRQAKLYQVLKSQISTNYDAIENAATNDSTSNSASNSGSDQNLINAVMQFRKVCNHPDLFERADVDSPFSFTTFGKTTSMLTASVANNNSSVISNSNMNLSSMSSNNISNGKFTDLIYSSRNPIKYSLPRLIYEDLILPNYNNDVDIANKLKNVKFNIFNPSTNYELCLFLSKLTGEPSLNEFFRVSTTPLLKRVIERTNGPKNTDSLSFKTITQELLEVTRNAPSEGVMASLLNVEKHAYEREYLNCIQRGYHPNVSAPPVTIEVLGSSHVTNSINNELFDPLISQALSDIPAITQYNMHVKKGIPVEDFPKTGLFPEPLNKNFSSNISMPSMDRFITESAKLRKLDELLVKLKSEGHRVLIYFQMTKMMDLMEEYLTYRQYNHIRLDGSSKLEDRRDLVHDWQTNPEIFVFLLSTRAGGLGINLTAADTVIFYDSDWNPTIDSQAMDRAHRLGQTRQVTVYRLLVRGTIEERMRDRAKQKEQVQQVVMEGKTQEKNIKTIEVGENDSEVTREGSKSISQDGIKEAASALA

Chain of Ino80-K929R-FLAG (P53115 whole entry K929R): as the sequence (P53115 whole entry) above, with K929R counted along it

B1: Atg11-CBP (tandem affinity-purified Atg11) (natural protein)
chain: MADADEYSTAPTQQEITPLQTTATIINAISGECITTNVDFFVSLDKFKQFIARKWKIPPDQLLILLPYGNKLKPSMFKELLINRSFTLNDFYVYDRRLFSLVSKPTPTNLLTSKDSNPMNSPNSNDLTETLEYLIKNSHISQYQGSDTIMIKPMPSPLEDADVDLSRLNYHSVTSLLTTNLGWLSALEIDVHYFKSLIPDIIAHIKRIFDGLTVCSQYLKLYCFDVESLYNSNVQFLNQLVDNGMTSKWEKCFNDTLSKLTALEGDSLQKFINIESLLENEKSVKILNHSINGKLNKIKREIDENASFRDIITVNIDRLRQMFTPNESKFELEDQMAESFEVLVSEMRTRSRNVLDKEEEEFNSQEFLKSMNVMLEKDKKESVKTLFTISQALYSQIGELIDLKKSLQKHAVAILGNIAFTQMEILGIKRLLLNECNKDLELYKKYEVEFAQVEDLPLIYGLYLIEKYRRLSWFQQILSFISNFNQDLELFKQNELRTRNKWVKNFGSIATVFCEDLLSSSDFKRLNEYHSHTSPPNEDEEDENENSIANYRQDLVKVSQAIDNYMTQIKETDVSEPIIDLLSKTLFETKRFHIIYSNFKNNNNNSSNGNSISPEGSIALKSDDVVKGYKTRIKKLESLLHEFQYSDIGHWPQGVLNTHLKPFRGSATSINKKKFLGASVLLEPANISEVNIDSVSQANNHQIQELESNVDDLLHQLQLLKEENNRKSMQISEMGKKISDLEVEKTAYRETLTNLNQELARLTNEEQSHRTEIFTLNASFKKQLNDIISQDNEKIEKLTGDYDDVSKSRERLQMDLDESNKKHEQEVNLLKADIERLGKQIVTSEKSYAETNSSSMEKGEKFETIPLAEDPGRENQISAYTQTLQDRIFDIISTNIFILENIGLLLTFDNNNNIQIRRVKGLKKGTAQSNILDESTQMLDAHDNSLIKSPVFQKLKDEYELIKSVANGSEKDTQQSIFLGNITQLYDNKLYEVAVIRRFKDIETLAKKLTKENKIKRTLLERFQREKVTLRNFQIGDLALFLPTRENVNSVGSMSSSTSSLSSSFSSVDLSTPPPLDAMSIQSSPSVIHSNVINQASISGRDKNKLMRPWAAFTAFEESTRYFLKDEKGLTKGKEWFVGRIVTLEHFVADSPSNNPFRLPKGSVWFQVTAVVVSYQGV
B1: binds (Ino80-K929R-FLAG); binds [1].
